Measurements reported in PMC1142404 (Nucleic Acids Research, 2005).

Experiments:
aCBF5 = molecular target: T1, aCBF5 (Pyrococcus abyssi GE5, UniProt Q9V1A5 1-334); test: EMSA
T1 sequence: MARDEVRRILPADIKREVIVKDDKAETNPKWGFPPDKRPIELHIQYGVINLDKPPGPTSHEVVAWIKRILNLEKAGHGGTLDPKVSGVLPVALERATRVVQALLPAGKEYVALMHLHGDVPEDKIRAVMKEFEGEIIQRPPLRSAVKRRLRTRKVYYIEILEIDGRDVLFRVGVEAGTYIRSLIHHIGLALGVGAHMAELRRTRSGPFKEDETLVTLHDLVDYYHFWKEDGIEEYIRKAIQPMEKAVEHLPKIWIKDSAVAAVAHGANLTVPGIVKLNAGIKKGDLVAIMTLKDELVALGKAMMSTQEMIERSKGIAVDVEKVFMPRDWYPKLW

aCBF5;aNOP10 = molecular target: T2, aCBF5;aNOP10 (Pyrococcus abyssi GE5;Pyrococcus abyssi …, UniProt Q9V1A5;Q9V0E3 1-334;1-60, |); test: EMSA
T2 sequence 1: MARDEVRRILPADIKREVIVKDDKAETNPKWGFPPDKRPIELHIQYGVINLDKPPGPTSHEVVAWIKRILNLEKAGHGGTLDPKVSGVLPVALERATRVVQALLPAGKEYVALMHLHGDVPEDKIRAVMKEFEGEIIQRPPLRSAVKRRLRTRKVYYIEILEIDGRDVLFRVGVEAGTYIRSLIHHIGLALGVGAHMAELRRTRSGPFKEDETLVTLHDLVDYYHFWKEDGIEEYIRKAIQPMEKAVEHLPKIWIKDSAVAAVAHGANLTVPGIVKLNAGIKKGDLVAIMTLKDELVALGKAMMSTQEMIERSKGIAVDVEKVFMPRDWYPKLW
T2 sequence 2: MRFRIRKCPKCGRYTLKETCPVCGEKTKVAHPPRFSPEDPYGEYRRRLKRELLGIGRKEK

[1] = molecular target: T3, aCBF5 protein (archaeal CBF5 RNA:Ψ-synthase), Pyrococcus abyssi, cleaved from GST (Pyrococcus abyssi, UniProt Q9V1A5 1-334); test: pull-down
T3 sequence (looked up): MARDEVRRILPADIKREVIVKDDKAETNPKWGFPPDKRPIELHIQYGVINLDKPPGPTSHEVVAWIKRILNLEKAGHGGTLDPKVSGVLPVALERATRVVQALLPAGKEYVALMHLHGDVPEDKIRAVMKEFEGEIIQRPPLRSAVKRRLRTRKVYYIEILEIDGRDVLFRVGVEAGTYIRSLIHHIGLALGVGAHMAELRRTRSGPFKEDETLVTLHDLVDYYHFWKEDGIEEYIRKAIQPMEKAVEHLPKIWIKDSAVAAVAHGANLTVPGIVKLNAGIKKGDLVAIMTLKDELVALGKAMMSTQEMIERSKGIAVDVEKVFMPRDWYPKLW

[2] = molecular target: T3, aCBF5 protein (archaeal CBF5 …); test: native gel or EMSA

B1: Pab91mtGA (structured_RNA)
RNA: GGGUAAUGCCCCUCCCCUCUCACACCUCCGGGAUCAGUCCCCGGAGGGCGGUCGGGGAGGGGACACCU
Does B1 bind (aCBF5)?
Result: binds

Does B1 bind (aCBF5;aNOP10)?
Result: binds

B2: GST-aNOP10 fusion protein (natural protein, Pyrococcus abyssi, UniProt Q9V0E3 1-60, looked up)
chain: MRFRIRKCPKCGRYTLKETCPVCGEKTKVAHPPRFSPEDPYGEYRRRLKRELLGIGRKEK
Does B2 bind [1]?
Result: binds

B3: aNOP10 protein, Pyrococcus abyssi, cleaved from GST (natural protein, UniProt Q9V0E3 1-60, looked up)
chain: MRFRIRKCPKCGRYTLKETCPVCGEKTKVAHPPRFSPEDPYGEYRRRLKRELLGIGRKEK
Does B3 bind [2]?
Result: binds
